Test results published in IntAct's records for PubMed 24229708.

B1: Runt-related transcription factor 3 (Homo sapiens), Q13761 (parent)
chain: MRIPVDPSTSRRFTPPSPAFPCGGGGGKMGENSGALSAQAAVGPGGRARPEVRSMVDVLADHAGELVRTDSPNFLCSVLPSHWRCNKTLPVAFKVVALGDVPDGTVVTVMAGNDENYSAELRNASAVMKNQVARFNDLRFVGRSGRGKSFTLTITVFTNPTQVATYHRAIKVTVDGPREPRRHRQKLEDQTKPFPDRFGDLERLRMRVTPSTPSPRGSLSTTSHFSSQPQTPIQGTSELNPFSDPRQFDRSFPTLPTLTESRFPDPRMHYPGAMSAAFPYSATPSGTSISSLSVAGMPATSRFHHTYLPPPYPGAPQNQSGPFQANPSPYHLYYGTSSGSYQFSMVAGSSSGGDRSPTRMLASCTSSAASVAAGNLMNPSLGGQSDGVEADGSHSNSPTALSTPGRMDEAVWRPY

Variants of: B1
Conditions: with brd2_human BRD2, P25440

Variant	effect of a mutation on the interaction
K87R;K94R;K129R;K148R;K171R;K186R	disrupting interaction
K94R	disrupting interaction

Next, values leading:

effect of a mutation on the interaction	Variant
decreasing interaction	K171R
disrupting interaction	K94R;K171R
